Legend:
DF206 = molecular target: T1, DF206; test: SEC of mixed components; trimer listed in Table 6
T1 construct: Bivalent connector
T1 chain: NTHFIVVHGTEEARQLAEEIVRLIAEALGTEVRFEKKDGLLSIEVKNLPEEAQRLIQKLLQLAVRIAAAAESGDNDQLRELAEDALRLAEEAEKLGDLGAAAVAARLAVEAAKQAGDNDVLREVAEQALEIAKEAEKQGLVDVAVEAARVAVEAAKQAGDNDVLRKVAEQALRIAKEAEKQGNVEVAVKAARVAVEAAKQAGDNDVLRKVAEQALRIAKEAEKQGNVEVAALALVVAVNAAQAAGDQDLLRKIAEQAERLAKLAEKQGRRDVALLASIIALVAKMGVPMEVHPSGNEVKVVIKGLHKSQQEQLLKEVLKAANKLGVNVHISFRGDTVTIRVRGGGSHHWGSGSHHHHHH

DF202 = molecular target: T2, DF202; test: SEC of mixed components; trimer listed in Table 6
T2 construct: Bivalent connector
T2 chain: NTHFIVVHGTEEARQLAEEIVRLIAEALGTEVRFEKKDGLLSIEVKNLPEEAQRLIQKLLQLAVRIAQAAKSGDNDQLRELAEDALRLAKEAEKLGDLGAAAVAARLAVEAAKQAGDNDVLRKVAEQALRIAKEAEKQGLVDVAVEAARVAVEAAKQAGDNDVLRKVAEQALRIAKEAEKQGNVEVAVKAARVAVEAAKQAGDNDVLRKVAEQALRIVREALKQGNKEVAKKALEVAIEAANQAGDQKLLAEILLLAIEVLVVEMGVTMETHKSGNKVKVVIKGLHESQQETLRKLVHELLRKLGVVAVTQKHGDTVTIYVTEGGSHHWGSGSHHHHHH

DFX = molecular target: T3, DFX; test: negative-stain EM of the heterotrimer; components named in the legend
T3 construct: Bivalent connector
T3 chain: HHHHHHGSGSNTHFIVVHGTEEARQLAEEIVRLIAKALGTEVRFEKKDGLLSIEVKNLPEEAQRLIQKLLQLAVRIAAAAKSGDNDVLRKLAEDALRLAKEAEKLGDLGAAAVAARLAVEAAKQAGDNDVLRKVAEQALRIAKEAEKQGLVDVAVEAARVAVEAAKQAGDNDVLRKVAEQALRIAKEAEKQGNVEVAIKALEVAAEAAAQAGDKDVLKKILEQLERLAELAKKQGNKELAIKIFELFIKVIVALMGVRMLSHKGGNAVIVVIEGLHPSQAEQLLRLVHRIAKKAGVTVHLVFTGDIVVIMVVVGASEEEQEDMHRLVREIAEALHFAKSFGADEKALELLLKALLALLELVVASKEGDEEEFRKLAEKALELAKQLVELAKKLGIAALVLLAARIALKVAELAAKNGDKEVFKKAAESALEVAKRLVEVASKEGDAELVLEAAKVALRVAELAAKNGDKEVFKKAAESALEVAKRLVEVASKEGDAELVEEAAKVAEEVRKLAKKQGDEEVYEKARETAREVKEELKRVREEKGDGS
Description: SEC peak fractions were concentrated prior to negative stain EM screening. Samples were then immediately diluted 5 to 150 times in TBS buffer (25 mM Tris pH 8.0, 25 mM NaCl) depending on sample concentration. A final volume of 5 μL was applied to negatively glow discharged, carbon-coated 400-mesh copper grids (01844-F, TedPella, Inc.), then washed with Milli-Q™ Water and stained using 0.75% uranyl formate as previously described (53). Air-dried grids were imaged on a FEI Talos L120C TEM (FEI Thermo Scientific, Hillsboro, OR) equipped with a 4K×4K Gatan OneView™ camera at a magnification of 57,000× and pixel size of 2.51. Micrographs were imported into CisTEM software or cryoSPARC™ software and a circular blob picker was used to select particles which were then subjected to 2D classification. Ab initio reconstruction and homogeneous refinement in Cn symmetry were used to generate 3D electron density maps (54, 55).

274B53 = molecular target: T4, 274B53; test: SEC titration (Superdex 200, normalised A230) of the complexes 274A53/274B53 and 29A53/29B53
T4 construct: also called LHD274B DHR53 stop
T4 chain: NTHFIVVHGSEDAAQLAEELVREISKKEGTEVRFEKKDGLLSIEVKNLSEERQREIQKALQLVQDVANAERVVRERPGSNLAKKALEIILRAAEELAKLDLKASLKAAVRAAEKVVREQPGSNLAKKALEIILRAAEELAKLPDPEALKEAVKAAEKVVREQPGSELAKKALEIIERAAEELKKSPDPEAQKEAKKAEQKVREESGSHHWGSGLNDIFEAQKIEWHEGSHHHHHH

LHD274 B62 = molecular target: T5, LHD274 B62; test: SEC binding assay (Superdex 200, normalised A230) of A, B and the mixture AB
T5 construct: also called LHD274 B DHR62 C
T5 single chain, LHD274 chain B fused to DHR62: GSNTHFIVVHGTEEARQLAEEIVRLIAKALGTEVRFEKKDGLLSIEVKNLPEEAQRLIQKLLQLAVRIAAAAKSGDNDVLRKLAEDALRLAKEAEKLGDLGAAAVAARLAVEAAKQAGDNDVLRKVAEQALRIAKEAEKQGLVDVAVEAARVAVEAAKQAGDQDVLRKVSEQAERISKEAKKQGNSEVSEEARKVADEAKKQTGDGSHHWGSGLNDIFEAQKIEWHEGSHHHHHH

Measured: binding result

B1: 274A53 (designed binder)
chain: TTNFHLINGSEEARQLIEKAVRAISKKEGTEVHFEKSDGTLEIRVKNLHEKREREIKKVIELILEVAAAERIVRERPGSNLAKKALEIILRAAEELAKADVDAALEAAVRAAEKVVREQPGSNLAKKALEIILRAAEELAKLPDPEALKEAVKAAEKVVREQPGSELAKKALEIIERAAEELKKSPDPEAQKEAKKAEQKVREESGSHHWGSGLNDIFEAQKIEWHEGSHHHHHH
notes: also called LHD274A DHR53 stop; LHD274A53
binds: all assays above

From US20240368233A1 (University of Washington, published 2024)
